B1: Leucine rich adaptor protein 1 (Homo sapiens), Q96LR2 (parent)
chain: MEGTVESQTPDLRDVEGKVGRKTPEGLLRGLRGECELGTSGALLLPGASSTGHDLGDKIMALKMELAYLRAIDVKILQQLVTLNEGIEAVRWLLEERGTLTSHCSSLTSSQYSLTGGSPGRSRRGSWDSLPDTSTTDRLDSVSIGSFLDTVAPSELDEQGPPGAPRSEMDWAKVIAGGERARTEVDVAATRLGSLRAVWKPPGERLQGGPPESPEDESAKLGFEAHWFWEQCQDDVTFL
partner: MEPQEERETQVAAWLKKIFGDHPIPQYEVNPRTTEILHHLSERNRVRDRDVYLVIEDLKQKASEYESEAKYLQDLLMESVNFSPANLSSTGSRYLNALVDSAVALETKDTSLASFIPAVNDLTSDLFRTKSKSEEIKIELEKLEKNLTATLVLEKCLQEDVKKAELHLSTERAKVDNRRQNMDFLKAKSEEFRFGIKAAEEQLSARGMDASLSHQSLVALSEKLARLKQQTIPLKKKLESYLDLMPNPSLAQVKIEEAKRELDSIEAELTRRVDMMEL
B2: Notch homolog 2 N-terminal-like protein A (Homo sapiens), Q7Z3S9 (parent)
chain: MCVTYHNGTGYCKCPEGFLGEYCQHRDPCEKNRCQNGGTCVAQAMLGKATCRCASGFTGEDCQYSTSHPCFVSRPCLNGGTCHMLSRDTYECTCQVGFTGKECQWTDACLSHPCANGSTCTTVANQFSCKCLTGFTGQKCETDVNECDIPGHCQHGGTCLNLPGSYQCQCLQGFTGQYCDSLYVPCAPSPCVNGGTCRQTGDFTFECNCLPETVRRGTELWERDREVWNGKEHDEN
partner: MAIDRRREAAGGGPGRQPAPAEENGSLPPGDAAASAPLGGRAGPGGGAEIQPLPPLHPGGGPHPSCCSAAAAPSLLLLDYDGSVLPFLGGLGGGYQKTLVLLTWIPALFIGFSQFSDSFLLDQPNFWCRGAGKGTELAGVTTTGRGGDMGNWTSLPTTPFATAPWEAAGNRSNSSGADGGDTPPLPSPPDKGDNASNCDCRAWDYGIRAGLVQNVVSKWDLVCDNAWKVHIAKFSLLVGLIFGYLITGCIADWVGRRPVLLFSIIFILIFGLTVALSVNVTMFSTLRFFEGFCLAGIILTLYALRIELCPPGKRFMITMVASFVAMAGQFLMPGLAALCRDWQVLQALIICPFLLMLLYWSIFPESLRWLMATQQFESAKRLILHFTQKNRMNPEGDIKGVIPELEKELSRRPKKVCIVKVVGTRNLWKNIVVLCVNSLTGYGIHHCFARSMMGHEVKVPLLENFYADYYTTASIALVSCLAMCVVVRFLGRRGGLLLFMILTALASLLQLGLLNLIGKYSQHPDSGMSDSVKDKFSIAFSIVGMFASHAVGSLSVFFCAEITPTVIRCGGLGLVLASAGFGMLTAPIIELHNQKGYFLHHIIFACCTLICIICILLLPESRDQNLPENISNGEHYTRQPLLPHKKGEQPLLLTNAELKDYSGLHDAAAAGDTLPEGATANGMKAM
B3: Golgin-45 (Homo sapiens), Q9H2G9 (parent)
chain: MTTKNLETKVTVTSSPIRGAGDGMETEEPPKSVEVTSGVQSRKHHSLQSPWKKAVPSESPGVLQLGKMLTEKAMEVKAVRILVPKAAITHDIPNKNTKVKSLGHHKGEFLGQSEGVIEPNKELSEVKNVLEKLKNSERRLLQDKEGLSNQLRVQTEVNRELKKLLVASVGDDLQYHFERLAREKNQLILENEALGRNTAQLSEQLERMSIQCDVWRSKFLASRVMADELTNSRAALQRQNRDAHGAIQDLLSEREQFRQEMIATQKLLEELLVSLQWGREQTYSPSVQPHSTAELALTNHKLAKAVNSHLLGNVGINNQKKIPSTVEFCSTPAEKMAETVLRILDPVTCKESSPDNPFFESSPTTLLATKKNIGRFHPYTRYENITFNCCNHCRGELIAL
partner: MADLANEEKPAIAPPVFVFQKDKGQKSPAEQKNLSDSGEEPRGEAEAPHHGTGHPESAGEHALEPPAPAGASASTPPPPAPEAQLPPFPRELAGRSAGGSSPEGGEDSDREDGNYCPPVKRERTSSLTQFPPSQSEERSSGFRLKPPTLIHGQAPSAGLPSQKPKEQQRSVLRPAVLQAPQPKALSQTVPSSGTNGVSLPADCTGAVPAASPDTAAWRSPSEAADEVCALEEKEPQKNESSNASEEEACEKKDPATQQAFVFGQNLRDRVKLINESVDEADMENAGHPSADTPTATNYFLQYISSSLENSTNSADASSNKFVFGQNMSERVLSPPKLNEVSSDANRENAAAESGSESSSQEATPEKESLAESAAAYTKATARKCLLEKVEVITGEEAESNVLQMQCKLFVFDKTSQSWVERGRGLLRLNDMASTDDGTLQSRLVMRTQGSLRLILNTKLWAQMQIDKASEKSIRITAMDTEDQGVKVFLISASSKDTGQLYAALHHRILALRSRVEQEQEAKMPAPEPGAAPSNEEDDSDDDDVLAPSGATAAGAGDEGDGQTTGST
B4: Transcription factor 19 (Homo sapiens), Q9Y242 (parent)
chain: MLPCFQLLRIGGGRGGDLYTFHPPAGAGCTYRLGHRADLCDVALRPQQEPGLISGIHAELHAEPRGDDWRVSLEDHSSQGTLVNNVRLPRGHRLELSDGDLLTFGPEGPPGTSPSEFYFMFQQVRVKPQDFAAITIPRSRGEARVGAGFRPMLPSQGAPQRPLSTFSPAPKATLILNSIGSLSKLRPQPLTFSPSWGGPKSLPVPAPPGEMGTTPSAPPQRNRRKSVHRVLAELDDESEPPENPPPVLMEPRKKLRVDKAPLTPTGNRRGRPRKYPVSAPMAPPAVGGGEPCAAPCCCLPQEETVAWVQCDGCDVWFHVACVGCSIQAAREADFRCPGCRAGIQT
B5: Protein FAM168A (Homo sapiens), Q92567 (parent)
chain: MNPVYSPVQPGAPYGNPKNMAYTGYPTAYPAAAPAYNPSLYPTNSPSYAPEFQFLHSAYATLLMKQAWPQNSSSCGTEGTFHLPVDTGTENRTYQASSAAFRYTAGTPYKVPPTQSNTAPPPYSPSPNPYQTAMYPIRSAYPQQNLYAQGAYYTQPVYAAQPHVIHHTTVVQPNSIPSAIYPAPVAAPRTNGVAMGMVAGTTMAMSAGTLLTTPQHTAIGAHPVSMPTYRAQGTPAYSYVPPHW
partner: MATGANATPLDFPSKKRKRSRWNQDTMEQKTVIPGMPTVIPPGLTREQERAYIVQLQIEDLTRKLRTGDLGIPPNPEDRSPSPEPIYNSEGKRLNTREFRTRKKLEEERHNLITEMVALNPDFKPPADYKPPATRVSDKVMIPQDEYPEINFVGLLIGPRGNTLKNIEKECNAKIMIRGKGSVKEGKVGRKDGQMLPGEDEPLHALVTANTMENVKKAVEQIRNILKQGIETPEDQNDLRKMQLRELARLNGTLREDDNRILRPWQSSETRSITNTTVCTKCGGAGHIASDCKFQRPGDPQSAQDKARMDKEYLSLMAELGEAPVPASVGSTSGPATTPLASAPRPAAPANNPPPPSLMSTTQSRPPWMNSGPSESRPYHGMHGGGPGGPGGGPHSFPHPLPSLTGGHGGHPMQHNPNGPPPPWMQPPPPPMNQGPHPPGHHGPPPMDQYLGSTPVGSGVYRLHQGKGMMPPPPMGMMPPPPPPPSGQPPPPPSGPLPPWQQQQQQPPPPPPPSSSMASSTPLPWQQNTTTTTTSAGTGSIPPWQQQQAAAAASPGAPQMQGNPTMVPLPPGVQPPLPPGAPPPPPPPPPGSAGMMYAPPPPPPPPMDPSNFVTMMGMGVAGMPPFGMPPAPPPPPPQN
B6: U3 small nucleolar RNA-associated protein 14 homolog C (Homo sapiens), Q5TAP6 (parent)
chain: MNVNQVAENLALSHQEELVDLPKNYPLSENEDEGDSDGERKHQKLLEAIISLDGKNRRKLAERSEASLKVSEFSVSSEGSGEKLGLADLLEPVKTSSSLATVKKQLNRVKSKKVVELPLNKEKIEQIHREVAFSKTSQVLSKWDPIILKNQQAEQLVFPLGKEQPAIAPIEHALSGWKARTPLEQEIFNLLHKNKQPVTDPLLTPMEKASLQAMSLEEAKMHRAELQRARALQSYYEAKARKEKKIKSKKYHKVVKKGKAKKALKEFEQLQKVNPTVALEEMEKIENARMMERMSLKHQNSGKWAKSKAIMAKYDLEARQAMQEQLAKNKELTQKLQVASESEEEEGGTEVEELLVPHVANEVQMNVDGPNPWMFRSCTSDTKEAATQEDPEQVPELAAHEVSASEAEERPVAEEEILLREFEERQSLRKRSELNQDAEPASSQETKDSSSQEVLSELRALSQKLKEKHQSRKQKASSEGTVPQVQREEPAPEEAEPLLLQRSERVQTLEELEELGKEDCFQNKELPRPVLEGQQSERTPNNRPDAPKEKKEKEQLINLQNFLTTQSPSVRSLAVPTIIEELEDEEERDQRQMIKEAFAGDDVIRDFLKEKREAVEASKPKDVDLTLPGWGEWGGVGLKPSAKKRRQFLIKAPEGPPRKDKNLPNVIISEKRNIHAAAHQVQVLPYPFTHHRQFERTIQTPIGSTWNTQRAFQKLTTPKVVTKPGHIIKPIKAEDVGYQSSSRSDLPVIQRNPKRITTRHNKEEKL

Variants of: B1
Conditions: with haus1_human HAUS1, Q96CS2

effect of a mutation on the interaction | Variant
with no effect | Q207R
with no effect | M60L

Variants of: B2
Conditions: with SLC22A23, A1A5C7

effect of a mutation on the interaction | Variant
with no effect | R74Q
with no effect | A115T

Variants of: B3
Conditions: with ranb3_human RANBP3, Q9H6Z4

effect of a mutation on the interaction | Variant
with no effect | Q40R
with no effect | H45R

Variants of: B4
Conditions: with dnja3_human DNAJA3, Q96EY1
Chain of dnja3_human DNAJA3, Q96EY1 (Q96EY1 whole entry): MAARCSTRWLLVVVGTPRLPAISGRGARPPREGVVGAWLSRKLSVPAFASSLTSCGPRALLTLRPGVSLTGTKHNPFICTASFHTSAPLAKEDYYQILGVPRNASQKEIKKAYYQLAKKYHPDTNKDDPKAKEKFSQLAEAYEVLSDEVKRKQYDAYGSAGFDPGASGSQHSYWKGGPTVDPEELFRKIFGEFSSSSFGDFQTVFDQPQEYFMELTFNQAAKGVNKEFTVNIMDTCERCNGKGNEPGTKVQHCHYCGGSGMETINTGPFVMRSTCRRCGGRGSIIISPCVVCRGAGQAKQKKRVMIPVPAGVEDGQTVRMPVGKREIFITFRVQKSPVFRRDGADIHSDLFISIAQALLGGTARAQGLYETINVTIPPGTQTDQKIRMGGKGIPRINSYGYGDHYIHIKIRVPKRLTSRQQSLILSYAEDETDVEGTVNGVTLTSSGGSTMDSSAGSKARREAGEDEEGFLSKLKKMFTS

effect of a mutation on the interaction | Variant
with no effect | A279V

Variants of: B5
Conditions: with sf01_human SF1, Q15637

effect of a mutation on the interaction | Variant
disrupting interaction strength | P122R

Variants of: B6
Conditions: with myome_human PDE4DIP

effect of a mutation on the interaction | Variant
with no effect | R672H
with no effect | A652T
with no effect | V109D
